Tests used:
GST-HSF2N96C328 [1] = target: T1, GST-HSF2N96C328 (human, UniProt Q03933 96-328); test: GST pull-down with GST-HSF2N96C328; 35S-labeled in vitro translated protein
T1 construct: Expressed in E. coli and immobilized on glutathione-Sepharose; also called HSF2N96C328 (GST fusion); not shown: glutathione S-transferase (GST) encoded by the pGEX-5X-1 vector (Pharmacia)
T1 sequence (looked up): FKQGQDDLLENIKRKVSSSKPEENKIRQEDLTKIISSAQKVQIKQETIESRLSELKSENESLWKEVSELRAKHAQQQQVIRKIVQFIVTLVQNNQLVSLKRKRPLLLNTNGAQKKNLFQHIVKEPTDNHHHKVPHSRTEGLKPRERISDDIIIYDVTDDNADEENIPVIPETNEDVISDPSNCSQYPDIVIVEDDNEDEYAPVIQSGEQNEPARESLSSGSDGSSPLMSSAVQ

GST-HSF2N96C328 [2] = target: T1, GST-HSF2N96C328; test: GST pull-down, 35S-labeled in vitro translated deletion mutant

B1: HSF2 binding protein (HSF2BP), in vitro translated, 35S-methionine-labeled (other)
chain: MGEAGAAEEACRHMGTKEEFVKVRKKDLERLTTEVMQIRDFLPRILNGEVLESFQKLKIVEKNLERKEQELEQLKMDCEHFKARLETVQADNIREKKEKLALRQQLNEAKQQLLQQAEYCTEMGAAACTLLWGVSSSEEVVKAILGGDKALKFFSITGQTMESFVKSLDGDVQELDSDESQFVFALAGIVTNVAAIACGREFLVNSSRVLLDTILQLLGDLKPGQCTKLKVLMLMSLYNVSINLKGLKYISESPGFIPLLWWLLSDPDAEVCLHVLRLVQSVVLEPEVFSKSASEFRSSLPLQRILAMSKSRNPRLQTAAQELLEDLRTLEHNV
modifications: 35S-methionine label
notes: In vitro translated (TNT kit) from HSF2BP cDNA in pcDNA 3.1 His A, B or C; also called human HSF2BP; intact HSF2BP
proportion bound (% of the level of input) (GST-HSF2N96C328 [1]): 12.9 % of the level of input

B2: BP-C150 (deletion mutant of HSF2BP), in vitro translated, 35S-methionine-labeled (other)
chain: MGEAGAAEEACRHMGTKEEFVKVRKKDLERLTTEVMQIRDFLPRILNGEVLESFQKLKIVEKNLERKEQELEQLKMDCEHFKARLETVQADNIREKKEKLALRQQLNEAKQQLLQQAEYCTEMGAAACTLLWGVSSSEEVVKAILGGDKA
modifications: 35S-methionine label
notes: Vector pcDNA 3.1 His; tag residues are not described
proportion bound (% of the level of input) (GST-HSF2N96C328 [1]): 22.3 % of the level of input

B3: BP-C115 (deletion mutant of HSF2BP), in vitro translated, 35S-methionine-labeled (other)
chain: MGEAGAAEEACRHMGTKEEFVKVRKKDLERLTTEVMQIRDFLPRILNGEVLESFQKLKIVEKNLERKEQELEQLKMDCEHFKARLETVQADNIREKKEKLALRQQLNEAKQQLLQ
modifications: 35S-methionine label
proportion bound (% of the level of input) (GST-HSF2N96C328 [1]): 5.7 % of the level of input

B4: BP-N115 (deletion mutant of HSF2BP), in vitro translated, 35S-methionine-labeled (other)
chain: QQAEYCTEMGAAACTLLWGVSSSEEVVKAILGGDKALKFFSITGQTMESFVKSLDGDVQELDSDESQFVFALAGIVTNVAAIACGREFLVNSSRVLLDTILQLLGDLKPGQCTKLKVLMLMSLYNVSINLKGLKYISESPGFIPLLWWLLSDPDAEVCLHVLRLVQSVVLEPEVFSKSASEFRSSLPLQRILAMSKSRNPRLQTAAQELLEDLRTLEHNV
modifications: 35S-methionine label
binding result (GST-HSF2N96C328 [2]): no binding

B5: BP-C73 (deletion mutant of HSF2BP), in vitro translated, 35S-methionine-labeled (other)
chain: MGEAGAAEEACRHMGTKEEFVKVRKKDLERLTTEVMQIRDFLPRILNGEVLESFQKLKIVEKNLERKEQELEQ
modifications: 35S-methionine label
binding result (GST-HSF2N96C328 [2]): no binding
